Experimental data: PMC6890786, “Pseudomonas aeruginosa uses multiple receptors for adherence to laminin during infection of the respiratory tract and skin wounds” (Scientific Reports, 2019)

What was measured:
Assay in all cases: BLI; OctetRed96; bacterial proteins immobilised on AR2G sensors by amino coupling; laminin-111 as analyte, 1.63 to 100 nM in PBS; 30 °C
[1] = molecular target: recombinant PA3923 of P. aeruginosa PAO1, 6xHis-tagged (P. aeruginosa PAO1) (UniProt Q9HX90)
[2] = molecular target: recombinant OprG of P. aeruginosa PAO1, 6xHis-tagged (P. aeruginosa PAO1) (UniProt Q9HWW1)
[3] = molecular target: T1, Engelbreth-Holm-Swarm murine sarcoma laminin-111 (mouse, UniProt P19137 25-3083; P02469 22-1786; P02468 34-1607); conditions: both partners purified
T1 construct: laminin alpha chain of laminin-111 (laminin subunit alpha-1), mouse; carries LG1-5 at its C-terminal end; laminin beta chain of laminin-111 (laminin subunit beta-1), mouse; laminin gamma chain of laminin-111 (laminin subunit gamma-1), mouse; Heterotrimer alpha/beta/gamma; Labelled with colloidal gold for the TEM experiment; also called L2020; source: bought: Sigma-Aldrich (L2020), …

“Engelbreth-Holm-Swarm murine sarcoma laminin-111 (from UniProt P19137 25-3083; P02469 22-1786; P02468 34-1607) (complex)” was tested. Which Kd [1] did it give?
Its Kd is 6.9 nM.

What about the Kd [2] of the same molecule?
Its Kd is 4.7 nM.

B1: recombinant Paf of P. aeruginosa, 6xHis-tagged (natural protein)
chain: EDGKRLRIGITLHPYYSYVSNIVGDKAEVVPLIPAGFNPHAYEPRAEDIKRIGTLDVVVLNGVGHDDFAERMIASSEKPGIPVIEANAKVPLLAATGMAARGAGKVVNPHTFLSISASITQVNTIARELGKLDPANAKAYTRNARAYAKRLRALRADALARLNKAPAADFRVATIHGAYDYLLREFGLEVTAVVEPAHGIEPSPSQLKKTIDQLKALDVKVIFSEIDFPSTYVETIQRESGVKLYSLSHISYGDYSAGKYEEEMARNLDTVVRAIQESGA
With B1 as the molecule, how does the Kd [3] read?
The Kd was 2.8 nM.

B2: recombinant OprD of P. aeruginosa PAO1, 6xHis-tagged (natural protein)
chain: DAFVSDQAEAKGFIEDSSLDLLLRNYYFNRDGKSGSGDRVDWTQGFLTTYESGFTQGTVGFGVDAFGYLGLKLDGTSDKTGTGNLPVMNDGKPRDDYSRAGGAVKVRISKTMLKWGEMQPTAPVFAAGGSRLFPQTATGFQLQSSEFEGLDLEAGHFTEGKEPTTVKSRGELYATYAGETAKSADFIGGRYAITDNLSASLYGAELEDIYRQYYLNSNYTIPLASDQSLGFDFNIYRTNDEGKAKAGDISNTTWSLAAAYTLDAHTFTLAYQKVHGDQPFDYIGFGRNGSGAGGDSIFLANSVQYSDFNGPGEKSWQARYDLNLASYGVPGLTFMVRYINGKDIDGTKMSDNNVGYKNYGYGEDGKHHETNLEAKYVVQSGPAKDLSFRIRQAWHRANADQGEGDQNEFRLIVDYPLSIL
notes: OprD (porin D, OccD1) of P. aeruginosa PAO1; open reading frame amplified from PAO1 genomic DNA and cloned into pET26(b)+; Labelled with 10 nm colloidal gold for TEM; also called porin D; OccD1; source: E. coli BL21(DE3), purified (Ni-NTA)
With B2 as the molecule, how does the Kd [3] read?
Its Kd is 22 nM.

B3: recombinant EstA of P. aeruginosa PAO1, 6xHis-tagged (natural protein)
chain: APSPYSTLVVFGDSLSDAGQFPDPAGPAGSTSRFTNRVGPTYQNGSGEIFGPTAPMLLGNQLGIAPGDLAASTSPVNAQQGIADGNNWAVGGYRTDQIYDSITAANGSLIERDNTLLRSRDGYLVDRARQGLGADPNALYYITGGGNDFLQGRILNDVQAQQAAGRLVDSVQALQQAGARYIVVWLLPDLGLTPATFGGPLQPFASQLSGTFNAELTAQLSQAGANVIPLNIPLLLKEGMANPASFGLAADQNLIGTCFSGNGCTMNPTYGINGSTPDPSKLLFNDSVHPTITGQRLIADYTYSLLSAPWELTLLPEMAHGTLRAYQDELRSQWQADWENWQNVGQWRGFVGGGGQRLDFDSQDSAASGDGNGYNLTLGGSYRIDEAWRAGVAAGFYRQKLEAGAKDSDYRMNSYMASAFVQYQENRWWADAALTGGYLDYDDLKRKFALGGGERSEKGDTNGHLWAFSARLGYDIAQQADSPWHLSPFVSADYARVEVDGYSEKGASATALDYDDQKRSSKRLGAGLQGKYAFGSDTQLFAEYAHEREYEDDTQDLTMSLNSLPGNRFTLEGYTPQDHLNRVSLGFSQKLAPELSLRGGYNWRKGEDDTQQSVSLALSLDF
notes: EstA, autotransporter esterase of P. aeruginosa PAO1; open reading frame amplified from PAO1 genomic DNA and cloned into pET26(b)+; Labelled with 10 nm colloidal gold for TEM; source: E. coli BL21(DE3), purified (Ni-NTA)
B3 was tested. Which Kd [3] did it give?
Its Kd is 1.7 nM.
